# Test results from the FLAb antibody collection (doi:10.1101/2023.12.08.570889).
# Tests used:
# TNFRSF9, Q07011 = experiment: Kd (SPR)
# TSLP, Q969D9 = experiment: Kd (SPR)
"Kd (TNFRSF9, Q07011) [nM]","Kd (TSLP, Q969D9) [nM]",Binder
86.4,,unnamed (protein) chain 1: EVQLVQSGAEVKKPGESLRISCKGSGYTFSNYWISWVRQMPGKGLEWMGKIYPGDSYTNYSPSFQGQVTISADKSISTAYLQWSSLKASDTAMYYCARGYGIFDYWGQGTLVTVSS chain 2: SYELTQPPSVSVSPGQTASITCSGDNIGDQYAHWYQQKPGQSPVLVIYQDKNRPSGIPERFSGSNSGNTATLTISGTQAMDEADYYCATYTGFGSLAVFGGGTKLTVL
84.1,,unnamed (protein) chain 1: EVQLVQSGAEVKKPGESLRISCKGSGYTFSDYWISWVRQMPGKGLEWMGKIYPGDSYTNYSPSFQGQVTISADKSISTAYLQWSSLKASDTAMYYCARGYGLFDYWGQGTLVTVSS chain 2: SYELTQPPSVSVSPGQTASITCSGDNIGDQYAHWYQQKPGQSPVLVIYQDKNRPSGIPERFSGSNSGNTATLTISGTQAMDEADYYCATYTGFGSLAVFGGGTKLTVL
145,,unnamed (protein) chain 1: EVQLVQSGAEVKKPGESLRISCKGSGYSFSNYWISWVRQMPGKGLEWMGKIYPGDSYTNYSPSFQGQVTISADKSISTAYLQWSSLKASDTAMYYCARGYGLFDYWGQGTLVTVSS chain 2: SYELTQPPSVSVSPGQTASITCSGDNIGDQYAHWYQQKPGQSPVLVIYQDKNRPSGIPERFSGSNSGNTATLTISGTQAMDEADYYCATYTGFGSLAVFGGGTKLTVL
51,,unnamed (protein) chain 1: EVQLVQSGAEVKKPGESLRISCKGSGYTFSNYWISWVRQMPGKGLEWMGKIYPGDSYTNYSPSFQGQVTISADKSISTAYLQWSSLKASDTAMYYCARGEGLFDYWGQGTLVTVSS chain 2: SYELTQPPSVSVSPGQTASITCSGDNIGDQYAHWYQQKPGQSPVLVIYQDKNRPSGIPERFSGSNSGNTATLTISGTQAMDEADYYCATYTGFGSLAVFGGGTKLTVL
120,,unnamed (protein) chain 1: EVQLVQSGAEVKKPGESLRISCKGSGYTFSDYWISWVRQMPGKGLEWMGKIYPGDSYTNYSPSFQGQVTISADKSISTAYLQWSSLKASDTAMYYCARGYGIFDYWGQGTLVTVSS chain 2: SYELTQPPSVSVSPGQTASITCSGDNIGDQYAHWYQQKPGQSPVLVIYQDKNRPSGIPERFSGSNSGNTATLTISGTQAMDEADYYCATYTGFGSLAVFGGGTKLTVL
51.1,,unnamed (protein) chain 1: EVQLVQSGAEVKKPGESLRISCKGSGYSFSSYWISWVRQMPGKGLEWMGKIYPGDSYTNYSPSFQGQVTISADKSISTAYLQWSSLKASDTAMYYCARGYGLFDYWGQGTLVTVSS chain 2: SYELTQPPSVSVSPGQTASITCSGDNIGDQYAHWYQQKPGQSPVLVIYQDKNRPSGIPERFSGSNSGNTATLTISGTQAMDEADYYCATYTGFGSLAVFGGGTKLTVL
58.6,,unnamed (protein) chain 1: EVQLVQSGAEVKKPGESLRISCKGSGYTFSSYWISWVRQMPGKGLEWMGKIYPGDSYTNYSPSFQGQVTISADKSISTAYLQWSSLKASDTAMYYCARGYGIFDYWGQGTLVTVSS chain 2: SYELTQPPSVSVSPGQTASITCSGDNIGDQYAHWYQQKPGQSPVLVIYQDKNRPSGIPERFSGSNSGNTATLTISGTQAMDEADYYCATYTGFGSLAVFGGGTKLTVL
117,,unnamed (protein) chain 1: EVQLVQSGAEVKKPGESLRISCKGSGYTFSNYWISWVRQMPGKGLEWMGKIYPGDSYTNYSPSFQGQVTISADKSISTAYLQWSSLKASDTAMYYCARGYGLFDYWGQGTLVTVSS chain 2: SYELTQPPSVSVSPGQTASITCSGDNIGDQYAHWYQQKPGQSPVLVIYQDKNRPSGIPERFSGSNSGNTATLTISGTQAMDEADYYCATYTGFGSLAVFGGGTKLTVL
228,,unnamed (protein) chain 1: EVQLVQSGAEVKKPGESLRISCKGSGYSFSSYWISWVRQMPGKGLEWMGKIYPGDSYTNYSPSFQGQVTISADKSISTAYLQWSSLKASDTAMYYCARGYGVFDYWGQGTLVTVSS chain 2: SYELTQPPSVSVSPGQTASITCSGDNIGDQYAHWYQQKPGQSPVLVIYQDKNRPSGIPERFSGSNSGNTATLTISGTQAMDEADYYCATYTGFGSLAVFGGGTKLTVL
32.9,,unnamed (protein) chain 1: EVQLVQSGAEVKKPGESLRISCKGSGYTFSSYWISWVRQMPGKGLEWMGKIYPGNSYTNYSPSFQGQVTISADKSISTAYLQWSSLKASDTAMYYCARGDGVFDYWGQGTLVTVSS chain 2: SYELTQPPSVSVSPGQTASITCSGDNIGDQYAHWYQQKPGQSPVLVIYQDKNRPSGIPERFSGSNSGNTATLTISGTQAMDEADYYCATYTGFGSLAVFGGGTKLTVL
150,,unnamed (protein) chain 1: EVQLVQSGAEVKKPGESLRISCKGSGYSFSSYWISWVRQMPGKGLEWMGKIYPGDSYTNYSPSFQGQVTISADKSISTAYLQWSSLKASDTAMYYCARGTGLFDYWGQGTLVTVSS chain 2: SYELTQPPSVSVSPGQTASITCSGDNIGDQYAHWYQQKPGQSPVLVIYQDKNRPSGIPERFSGSNSGNTATLTISGTQAMDEADYYCATYTGFGSLAVFGGGTKLTVL
59.4,,unnamed (protein) chain 1: EVQLVQSGAEVKKPGESLRISCKGSGYTFSSYWISWVRQMPGKGLEWMGKIYPGDSYTNYSPSFQGQVTISADKSISTAYLQWSSLKASDTAMYYCARGYGILDYWGQGTLVTVSS chain 2: SYELTQPPSVSVSPGQTASITCSGDNIGDQYAHWYQQKPGQSPVLVIYQDKNRPSGIPERFSGSNSGNTATLTISGTQAMDEADYYCATYTGFGSLAVFGGGTKLTVL
,0.203,unnamed (protein) chain 1: QMQLVESGGGVVQPGRSLRLSCAASGFTFRTYGMHWVRQAPGKGLEWVAVIWYDGSNKHYADSVKGRFTITRDNSKNTLNLQMNSLRAEDTAVYYCAREPPLFYSSWSLDNWGQGTMVTVSS chain 2: SYVLTQPPSVSVAPGQTARITCGGNNLGSKSVHWYQQKPGQAPVLVVYDDSDRPSWIPERFSGSNSGNTATLTISRGEAGDEADYYCQVWDSSSDHVVFGGGTKLTVL
,557,unnamed (protein) chain 1: QMQLVESGGGVVQPGRSLRLSCAASGFTFRTYGMHWVRQAPGKGLEWVAVIWYDGSNKHYADSVKGRFTITRDNSKNTLNLQMNSLRAEDTAVYYCARGPFSRYDYFAMDNWGQGTMVTVSS chain 2: SYVLTQPPSVSVAPGQTARITCGGNNLGSKSVHWYQQKPGQAPVLVVYDDSDRPSWIPERFSGSNSGNTATLTISRGEAGDEADYYCQVWDSSSDHVVFGGGTKLTVL
,523,unnamed (protein) chain 1: QMQLVESGGGVVQPGRSLRLSCAASGFTFRTYGMHWVRQAPGKGLEWVAVIWYDGSNKHYADSVKGRFTITRDNSKNTLNLQMNSLRAEDTAVYYCANLKDSRYSGSYYDYWGQGTMVTVSS chain 2: SYVLTQPPSVSVAPGQTARITCGGNNLGSKSVHWYQQKPGQAPVLVVYDDSDRPSWIPERFSGSNSGNTATLTISRGEAGDEADYYCQVWDSSSDHVVFGGGTKLTVL
,229,unnamed (protein) chain 1: QMQLVESGGGVVQPGRSLRLSCAASGFTFRTYGMHWVRQAPGKGLEWVAVIWYDGSNKHYADSVKGRFTITRDNSKNTLNLQMNSLRAEDTAVYYCARDESTGDYYYYMDVWGQGTMVTVSS chain 2: SYVLTQPPSVSVAPGQTARITCGGNNLGSKSVHWYQQKPGQAPVLVVYDDSDRPSWIPERFSGSNSGNTATLTISRGEAGDEADYYCQVWDSSSDHVVFGGGTKLTVL
,426,unnamed (protein) chain 1: QMQLVESGGGVVQPGRSLRLSCAASGFTFRTYGMHWVRQAPGKGLEWVAVIWYDGSNKHYADSVKGRFTITRDNSKNTLNLQMNSLRAEDTAVYYCVRGSITWPTEYYLDYWGQGTMVTVSS chain 2: SYVLTQPPSVSVAPGQTARITCGGNNLGSKSVHWYQQKPGQAPVLVVYDDSDRPSWIPERFSGSNSGNTATLTISRGEAGDEADYYCQVWDSSSDHVVFGGGTKLTVL
,300,unnamed (protein) chain 1: QMQLVESGGGVVQPGRSLRLSCAASGFTFRTYGMHWVRQAPGKGLEWVAVIWYDGSNKHYADSVKGRFTITRDNSKNTLNLQMNSLRAEDTAVYYCARPPYYYGTTYYFDYWGQGTMVTVSS chain 2: SYVLTQPPSVSVAPGQTARITCGGNNLGSKSVHWYQQKPGQAPVLVVYDDSDRPSWIPERFSGSNSGNTATLTISRGEAGDEADYYCQVWDSSSDHVVFGGGTKLTVL
,183,unnamed (protein) chain 1: QMQLVESGGGVVQPGRSLRLSCAASGFTFRTYGMHWVRQAPGKGLEWVAVIWYDGSNKHYADSVKGRFTITRDNSKNTLNLQMNSLRAEDTAVYYCARGPMALLYYRGFDYWGQGTMVTVSS chain 2: SYVLTQPPSVSVAPGQTARITCGGNNLGSKSVHWYQQKPGQAPVLVVYDDSDRPSWIPERFSGSNSGNTATLTISRGEAGDEADYYCQVWDSSSDHVVFGGGTKLTVL
